{"source": "patent US20100129369A1", "about": "(Eli Lilly, published 2010)", "binders": {"B1": {"name": "C8-6 (antibody, human IgG2, kappa, V domains shown)", "VH": "QVQLVQSGAEVKKPGASVKVSCKASGYTFTDYYMHWVRQAPGQGLEWMGRVNPNRGGTTYNQKFEGRVTMTTDTSTSTAYMELRSLRSDDTAVYYCARTNWLDYWGQGTTVTVSS", "VL": "DIQMTQSPSSLSASVGDRVTITCSVSSSVSSIYLHWYQQKPGKAPKLLIYSTSNLASGVPSRFSGSGSGTDFTLTISSLQPEDFATYYCIQYSGYPLTFGGGTKVEIKR", "notes": "Called IgG4, kappa; also called Mab C8-6"}}, "key": {"Human c-Met-Flis-Fc ECD [1]": {"molecular_target": "T1, Human c-Met-Flis-Fc ECD (human)", "T1 construct": "also called human c-Met extracellular domain (ECD)-Fc-Flis fusion; Human cMet-ECD-Fc-Flis", "T1 sequence (chain, as listed by the source limits assumed)": "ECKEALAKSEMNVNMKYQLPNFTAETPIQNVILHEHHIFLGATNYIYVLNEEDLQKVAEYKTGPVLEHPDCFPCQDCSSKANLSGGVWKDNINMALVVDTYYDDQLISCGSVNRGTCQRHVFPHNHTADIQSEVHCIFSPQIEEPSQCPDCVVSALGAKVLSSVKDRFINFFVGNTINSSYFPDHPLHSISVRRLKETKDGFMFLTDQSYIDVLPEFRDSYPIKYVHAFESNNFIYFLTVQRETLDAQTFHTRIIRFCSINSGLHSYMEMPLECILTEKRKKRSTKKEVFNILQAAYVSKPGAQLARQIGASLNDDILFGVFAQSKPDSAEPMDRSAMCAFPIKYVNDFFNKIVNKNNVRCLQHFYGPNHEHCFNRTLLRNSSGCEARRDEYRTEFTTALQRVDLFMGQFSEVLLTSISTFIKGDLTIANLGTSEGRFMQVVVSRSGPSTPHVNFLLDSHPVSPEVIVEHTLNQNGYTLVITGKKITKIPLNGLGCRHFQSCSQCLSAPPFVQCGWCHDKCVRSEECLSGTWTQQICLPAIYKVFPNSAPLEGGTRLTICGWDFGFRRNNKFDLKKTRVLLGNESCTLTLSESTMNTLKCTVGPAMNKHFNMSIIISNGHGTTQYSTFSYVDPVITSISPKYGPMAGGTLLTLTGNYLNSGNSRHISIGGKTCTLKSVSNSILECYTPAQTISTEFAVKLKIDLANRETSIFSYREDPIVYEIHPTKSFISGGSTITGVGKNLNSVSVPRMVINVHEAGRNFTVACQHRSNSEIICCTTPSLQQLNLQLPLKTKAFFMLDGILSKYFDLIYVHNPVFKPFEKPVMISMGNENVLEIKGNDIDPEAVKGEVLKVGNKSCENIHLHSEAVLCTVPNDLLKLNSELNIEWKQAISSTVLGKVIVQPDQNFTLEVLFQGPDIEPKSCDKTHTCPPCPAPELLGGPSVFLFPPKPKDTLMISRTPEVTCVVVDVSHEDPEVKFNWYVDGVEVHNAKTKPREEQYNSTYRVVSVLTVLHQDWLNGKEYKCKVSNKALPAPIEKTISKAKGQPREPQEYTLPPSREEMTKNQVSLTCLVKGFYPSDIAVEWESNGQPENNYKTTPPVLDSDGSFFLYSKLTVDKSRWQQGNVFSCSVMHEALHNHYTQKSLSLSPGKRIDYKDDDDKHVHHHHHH", "assay": "ELISA, coated ECD-Fc, antibody 12.860 ng/mL", "description": "(§1) Wells of 96-well EIA/RIA high binding plates (Costar, #2592) are coated with 100 μL of 1 μg/mL human c-Met extracellular domain (ECD)-Fc-Flis fusion (SEQ ID NO:72), RON-ECD-Fc (R&D Systems, #1947-MS), or PlexinA2-ECD-Fc (Abnova, Taipei, Taiwan #H00005362-P01) in coating buffer (BioFX Labs, # COAT-1000-01) overnight at 4° C. […] After the plates are washed, 100 μL/well of substrate solution (BioFx, #TMBW-1000-01) are added and the plates are incubated for 10 min. at room temperature. 100 μL/well of stop solution (BioFx, # LSTP-1000-01) are added to stop the reaction. The colorimetric signals are developed and read at 450 nm using a SpectraMax 190 plate reader (Molecular Devices, Sunnyvale, Calif.). c-Met antibody binding to c-Met, RON and PlexinA2 ECDs is proportional to color signal production."}, "RON-ECD-Fc [2]": {"molecular_target": "T2, RON-ECD-Fc (human, UniProt Q04912 25-957)", "T2 construct": "extracellular domain; Bought reagent; not shown: Fc part of the bought fusion", "T2 sequence (looked up)": "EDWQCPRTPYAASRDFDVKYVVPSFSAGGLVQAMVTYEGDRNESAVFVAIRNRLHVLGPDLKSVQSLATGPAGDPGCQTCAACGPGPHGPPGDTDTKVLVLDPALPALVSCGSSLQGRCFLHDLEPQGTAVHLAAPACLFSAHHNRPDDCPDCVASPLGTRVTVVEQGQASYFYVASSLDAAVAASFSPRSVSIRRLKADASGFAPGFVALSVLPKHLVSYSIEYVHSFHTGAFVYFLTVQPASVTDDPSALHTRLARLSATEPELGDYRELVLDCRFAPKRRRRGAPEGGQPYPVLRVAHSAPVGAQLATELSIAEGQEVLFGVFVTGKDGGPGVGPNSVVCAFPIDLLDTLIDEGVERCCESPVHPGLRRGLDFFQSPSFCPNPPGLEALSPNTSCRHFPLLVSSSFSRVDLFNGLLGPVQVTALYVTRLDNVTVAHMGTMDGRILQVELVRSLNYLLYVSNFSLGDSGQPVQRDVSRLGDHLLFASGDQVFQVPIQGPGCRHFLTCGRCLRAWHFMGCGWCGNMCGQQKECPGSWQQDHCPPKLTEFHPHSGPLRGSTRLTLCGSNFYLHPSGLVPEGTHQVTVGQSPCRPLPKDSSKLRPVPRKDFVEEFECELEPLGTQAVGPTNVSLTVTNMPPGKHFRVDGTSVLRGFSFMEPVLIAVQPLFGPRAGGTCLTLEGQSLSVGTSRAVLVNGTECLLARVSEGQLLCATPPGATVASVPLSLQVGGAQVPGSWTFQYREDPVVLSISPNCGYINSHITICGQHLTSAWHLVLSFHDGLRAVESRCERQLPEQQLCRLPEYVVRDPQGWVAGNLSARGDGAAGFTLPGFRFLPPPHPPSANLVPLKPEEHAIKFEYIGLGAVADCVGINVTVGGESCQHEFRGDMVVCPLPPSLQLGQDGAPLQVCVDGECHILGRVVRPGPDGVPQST", "assay": "ELISA, coated ECD-Fc, antibody 12.860 ng/mL", "description": "as §1"}, "PlexinA2-ECD-Fc [3]": {"molecular_target": "T3, PlexinA2-ECD-Fc (human, UniProt O75051 35-1237)", "T3 construct": "extracellular domain; Bought reagent", "T3 sequence (looked up)": "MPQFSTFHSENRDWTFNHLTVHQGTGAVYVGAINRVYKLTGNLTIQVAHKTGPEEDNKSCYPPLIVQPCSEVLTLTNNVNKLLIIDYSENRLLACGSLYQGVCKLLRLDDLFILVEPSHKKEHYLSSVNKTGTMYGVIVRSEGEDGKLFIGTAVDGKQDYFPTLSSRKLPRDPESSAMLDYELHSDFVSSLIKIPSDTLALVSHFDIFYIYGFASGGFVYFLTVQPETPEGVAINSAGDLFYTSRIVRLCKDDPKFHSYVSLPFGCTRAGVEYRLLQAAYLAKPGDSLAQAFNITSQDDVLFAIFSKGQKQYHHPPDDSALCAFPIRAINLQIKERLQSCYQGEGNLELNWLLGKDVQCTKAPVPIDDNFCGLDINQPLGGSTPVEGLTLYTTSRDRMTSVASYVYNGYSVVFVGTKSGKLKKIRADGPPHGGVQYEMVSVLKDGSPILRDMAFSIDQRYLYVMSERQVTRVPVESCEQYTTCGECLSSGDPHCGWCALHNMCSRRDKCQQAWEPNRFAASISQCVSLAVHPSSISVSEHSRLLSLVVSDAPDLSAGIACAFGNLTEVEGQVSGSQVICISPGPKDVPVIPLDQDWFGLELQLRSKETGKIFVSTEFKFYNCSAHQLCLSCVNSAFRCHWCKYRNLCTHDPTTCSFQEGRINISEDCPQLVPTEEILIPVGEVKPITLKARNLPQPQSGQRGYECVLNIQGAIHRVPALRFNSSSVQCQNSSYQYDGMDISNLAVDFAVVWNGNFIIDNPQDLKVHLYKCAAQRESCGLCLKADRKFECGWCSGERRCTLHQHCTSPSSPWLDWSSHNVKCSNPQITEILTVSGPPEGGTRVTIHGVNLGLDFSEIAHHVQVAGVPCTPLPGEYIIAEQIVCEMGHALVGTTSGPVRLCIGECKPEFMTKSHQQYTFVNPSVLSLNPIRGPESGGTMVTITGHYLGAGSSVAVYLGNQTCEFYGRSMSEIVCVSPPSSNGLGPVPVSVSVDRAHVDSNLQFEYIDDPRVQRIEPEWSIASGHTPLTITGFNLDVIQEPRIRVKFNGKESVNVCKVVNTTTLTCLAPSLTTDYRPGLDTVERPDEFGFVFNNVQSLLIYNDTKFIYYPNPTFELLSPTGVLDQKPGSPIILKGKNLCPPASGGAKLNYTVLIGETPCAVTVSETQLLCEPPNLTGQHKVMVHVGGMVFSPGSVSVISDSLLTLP", "assay": "ELISA, coated ECD-Fc, antibody 12.860 ng/mL", "description": "as §1"}, "RON-ECD-Fc [4]": {"molecular_target": "T2, RON-ECD-Fc", "assay": "ELISA, coated ECD-Fc, antibody 0.002 ng/mL"}, "Human c-Met-Flis-Fc ECD [5]": {"molecular_target": "T1, Human c-Met-Flis-Fc ECD", "assay": "ELISA, coated ECD-Fc, antibody 2.143 ng/mL", "description": "as §1"}, "RON-ECD-Fc [6]": {"molecular_target": "T2, RON-ECD-Fc", "assay": "ELISA, coated ECD-Fc, antibody 2.143 ng/mL", "description": "as §1"}, "PlexinA2-ECD-Fc [7]": {"molecular_target": "T3, PlexinA2-ECD-Fc", "assay": "ELISA, coated ECD-Fc, antibody 2.143 ng/mL", "description": "as §1"}}}
{"binder": "B1", "values": [{"measurement": "Average A450 nm", "setting": "Human c-Met-Flis-Fc ECD [1]", "value": 4, "unit": "A450 nm"}, {"measurement": "Average A450 nm", "setting": "RON-ECD-Fc [2]", "value": 0.087, "unit": "A450 nm"}, {"measurement": "Average A450 nm", "setting": "PlexinA2-ECD-Fc [3]", "value": 0.085, "unit": "A450 nm"}, {"measurement": "Average A450 nm", "setting": "RON-ECD-Fc [4]", "value": 0.106, "unit": "A450 nm"}, {"measurement": "Average A450 nm", "setting": "Human c-Met-Flis-Fc ECD [5]", "value": 2.42, "unit": "A450 nm"}, {"measurement": "Average A450 nm", "setting": "RON-ECD-Fc [6]", "value": 0.098, "unit": "A450 nm"}, {"measurement": "Average A450 nm", "setting": "PlexinA2-ECD-Fc [7]", "value": 0.106, "unit": "A450 nm"}]}
